Data taken from PMC12450071.

Molecular target: JUNV GP1 (receptor-binding domain), subunit within the GPC on PV membranes (Junin virus strain MC2)
Assay: cryo-EM structure

JUNV GP1 (receptor-binding domain), subunit within the GPC on PV membranes (domain or fragment)
stoichiometry N: 3
